Article PMC9482650, “Quantitative fragmentomics allow affinity mapping of interactomes” (Nature Communications, 2022)

Key:
Test in all cases: holdup assay
Set-up in all cases: key: below the threshold = too weak to quantify, mostly under pKd 3.1 to 4
CARD11, Q9BXL7 = target: T1, CARD11, Q9BXL7
T1 sequence (Q9BXL7 662-765, limits assumed, looked up): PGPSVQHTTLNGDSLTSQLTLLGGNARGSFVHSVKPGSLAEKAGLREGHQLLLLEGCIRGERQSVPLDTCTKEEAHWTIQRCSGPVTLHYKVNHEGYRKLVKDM

DLG1_2, Q12959 = target: DLG1_2, Q12959
DLG4_2, P78352 = target: DLG4_2, P78352
Sequence of DLG4_2, P78352 (P78352 155-259): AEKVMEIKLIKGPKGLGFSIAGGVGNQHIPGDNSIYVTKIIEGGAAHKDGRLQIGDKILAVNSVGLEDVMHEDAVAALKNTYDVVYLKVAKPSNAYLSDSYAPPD

DLG4_3, P78352 = target: DLG4_3, P78352
Sequence of DLG4_3, P78352 (P78352 306-403): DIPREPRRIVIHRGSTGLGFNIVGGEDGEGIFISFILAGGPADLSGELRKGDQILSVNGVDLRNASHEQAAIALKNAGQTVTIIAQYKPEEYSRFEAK

DVL3, Q92997 = target: T2, DVL3, Q92997
T2 sequence (Q92997 244-331, limits assumed, looked up): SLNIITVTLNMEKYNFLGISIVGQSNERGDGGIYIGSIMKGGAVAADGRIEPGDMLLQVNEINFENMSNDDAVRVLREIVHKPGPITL

FRMPD2_1, Q68DX3 = target: FRMPD2_1, Q68DX3
Sequence of FRMPD2_1, Q68DX3 (Q68DX3 770-861): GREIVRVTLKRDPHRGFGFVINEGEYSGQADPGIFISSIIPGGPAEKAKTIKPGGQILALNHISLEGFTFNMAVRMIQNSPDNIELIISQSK

FRMPD2_3, Q68DX3 = target: FRMPD2_3, Q68DX3
Sequence of FRMPD2_3, Q68DX3 (Q68DX3 1073-1166): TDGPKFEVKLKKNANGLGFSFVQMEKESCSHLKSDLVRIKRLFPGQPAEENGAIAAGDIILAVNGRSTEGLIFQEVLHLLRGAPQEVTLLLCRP

GRID2IP_2, A4D2P6 = target: GRID2IP_2, A4D2P6
Sequence of GRID2IP_2, A4D2P6 (A4D2P6 272-370): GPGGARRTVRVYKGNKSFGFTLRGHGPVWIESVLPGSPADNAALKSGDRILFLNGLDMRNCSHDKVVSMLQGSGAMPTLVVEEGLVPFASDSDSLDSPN

GRIP1_3, Q9Y3R0 = target: T3, GRIP1_3, Q9Y3R0
T3 sequence (Q9Y3R0 247-346, limits assumed, looked up): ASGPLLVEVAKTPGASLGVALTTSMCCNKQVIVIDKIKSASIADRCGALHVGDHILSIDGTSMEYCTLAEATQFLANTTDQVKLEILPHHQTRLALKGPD

GRIP1_4, Q9Y3R0 = target: T4, GRIP1_4, Q9Y3R0
T4 sequence (Q9Y3R0 467-571, limits assumed, looked up): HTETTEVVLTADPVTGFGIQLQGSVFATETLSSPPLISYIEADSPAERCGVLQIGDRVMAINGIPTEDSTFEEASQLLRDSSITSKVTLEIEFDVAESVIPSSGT

GRIP1_7, Q9Y3R0 = target: T5, GRIP1_7, Q9Y3R0
T5 sequence (Q9Y3R0 999-1096, limits assumed, looked up): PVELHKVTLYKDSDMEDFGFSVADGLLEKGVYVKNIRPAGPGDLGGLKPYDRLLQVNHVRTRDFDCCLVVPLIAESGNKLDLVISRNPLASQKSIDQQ

GRIP2_4, Q9C0E4 = target: GRIP2_4, Q9C0E4
Sequence of GRIP2_4, Q9C0E4 (Q9C0E4 446-548): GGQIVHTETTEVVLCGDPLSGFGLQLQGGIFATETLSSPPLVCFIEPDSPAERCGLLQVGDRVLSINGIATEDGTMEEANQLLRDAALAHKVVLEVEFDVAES

GRIP2_7, Q9C0E4 = target: GRIP2_7, Q9C0E4
Sequence of GRIP2_7, Q9C0E4 (Q9C0E4 934-1023): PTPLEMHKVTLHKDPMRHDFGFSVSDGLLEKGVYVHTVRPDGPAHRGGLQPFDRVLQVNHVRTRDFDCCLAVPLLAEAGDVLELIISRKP

HTRA2, O43464 = target: HTRA2, O43464
Sequence of HTRA2, O43464 (O43464 355-458): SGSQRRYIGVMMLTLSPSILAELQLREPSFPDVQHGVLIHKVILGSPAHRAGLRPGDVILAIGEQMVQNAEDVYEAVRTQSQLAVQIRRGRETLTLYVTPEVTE

IL16_1, Q14005 = target: IL16_1, Q14005
Sequence of IL16_1, Q14005 (Q14005 210-306): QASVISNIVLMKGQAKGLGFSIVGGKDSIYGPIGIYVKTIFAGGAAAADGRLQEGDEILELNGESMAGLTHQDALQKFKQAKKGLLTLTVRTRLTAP

IL16_3, Q14005 = target: IL16_3, Q14005
Sequence of IL16_3, Q14005 (Q14005 1107-1207): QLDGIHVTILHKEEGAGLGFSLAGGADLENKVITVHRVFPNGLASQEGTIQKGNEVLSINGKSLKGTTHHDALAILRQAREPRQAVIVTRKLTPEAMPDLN

Inadl_2, Q8NI35 = target: Inadl_2, Q8NI35
Sequence of Inadl_2, Q8NI35 (Q8NI35 238-335): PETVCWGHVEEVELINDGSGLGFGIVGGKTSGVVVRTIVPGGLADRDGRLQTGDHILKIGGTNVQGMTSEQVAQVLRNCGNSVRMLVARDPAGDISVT

LIN7A, O14910 = target: T6, LIN7A, O14910
T6 sequence (O14910 103-200, limits assumed, looked up): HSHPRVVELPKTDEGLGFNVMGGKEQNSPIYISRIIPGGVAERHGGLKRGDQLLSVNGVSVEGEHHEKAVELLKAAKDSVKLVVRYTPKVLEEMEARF

MAGI1_2, Q96QZ7 = target: MAGI1_2, Q96QZ7
Sequence of MAGI1_2, Q96QZ7 (Q96QZ7 456-580): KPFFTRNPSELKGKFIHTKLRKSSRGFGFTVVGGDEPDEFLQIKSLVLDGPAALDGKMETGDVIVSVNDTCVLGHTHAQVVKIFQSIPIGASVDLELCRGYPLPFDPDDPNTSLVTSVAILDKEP

MAST1, Q9Y2H9 = target: MAST1, Q9Y2H9
Sequence of MAST1, Q9Y2H9 (Q9Y2H9 962-1065): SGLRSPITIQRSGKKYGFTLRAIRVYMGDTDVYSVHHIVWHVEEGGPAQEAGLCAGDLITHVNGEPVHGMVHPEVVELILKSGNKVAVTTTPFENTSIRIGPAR

MPP7, Q5T2T1 = target: T7, MPP7, Q5T2T1
T7 sequence (Q5T2T1 134-230, limits assumed, looked up): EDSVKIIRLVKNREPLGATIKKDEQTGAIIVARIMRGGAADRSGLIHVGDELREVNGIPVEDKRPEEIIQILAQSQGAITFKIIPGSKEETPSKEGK

NHERF4_1, Q86UT5-2 = target: NHERF4_1, Q86UT5-2
Sequence of NHERF4_1, Q86UT5-2 (Q86UT5 other isoform, or with tags, fused parts or gaps): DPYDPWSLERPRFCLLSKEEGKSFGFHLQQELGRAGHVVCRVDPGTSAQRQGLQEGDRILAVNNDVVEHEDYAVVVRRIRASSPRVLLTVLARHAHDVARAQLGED

NHERF4_2, Q86UT5 = target: NHERF4_2, Q86UT5
Sequence of NHERF4_2, Q86UT5 (Q86UT5 220-308): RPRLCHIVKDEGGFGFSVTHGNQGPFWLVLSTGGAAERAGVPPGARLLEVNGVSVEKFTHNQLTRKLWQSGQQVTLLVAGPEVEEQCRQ

NHERF4_4, Q86UT5 = target: NHERF4_4, Q86UT5
Sequence of NHERF4_4, Q86UT5 (Q86UT5 464-550): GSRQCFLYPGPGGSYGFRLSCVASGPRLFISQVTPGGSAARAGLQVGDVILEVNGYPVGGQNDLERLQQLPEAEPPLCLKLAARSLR

PDZD7_3, Q9H5P4 = target: T8, PDZD7_3, Q9H5P4
T8 sequence (Q9H5P4 857-944, limits assumed, looked up): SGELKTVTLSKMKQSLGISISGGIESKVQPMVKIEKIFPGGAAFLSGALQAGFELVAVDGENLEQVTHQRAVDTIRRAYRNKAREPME

SNTG2, Q9NY99 = target: T9, SNTG2, Q9NY99
T9 sequence (Q9NY99 68-166, limits assumed, looked up): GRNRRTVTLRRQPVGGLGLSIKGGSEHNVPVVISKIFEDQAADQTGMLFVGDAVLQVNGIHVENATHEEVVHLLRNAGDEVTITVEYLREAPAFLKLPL

SNX27, Q96L92 = target: SNX27, Q96L92
SYNJ2BP, P57105 = target: T10, SYNJ2BP, P57105
T10 sequence (P57105 8-110, limits assumed, looked up): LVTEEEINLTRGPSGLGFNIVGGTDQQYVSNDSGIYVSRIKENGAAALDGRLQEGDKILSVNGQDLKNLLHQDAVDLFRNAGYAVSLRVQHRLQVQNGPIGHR

[1] = plain residues with an end cap or a label only (N-terminal biotin on a linker: ado-ado)
[2] = plain residues with an end cap or a label only (N-terminal biotin on a linker: (peg)3)

Sequence of DLG1_2, Q12959 (Q12959 314-412): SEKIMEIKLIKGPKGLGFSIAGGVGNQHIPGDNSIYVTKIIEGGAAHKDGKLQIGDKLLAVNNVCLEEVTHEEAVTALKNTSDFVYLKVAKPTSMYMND

## ELSATVTTDC [TRIP6, Q15654]
CARD11, Q9BXL7; [1]
  pKd: below the threshold
DLG1_2, Q12959; [1]
  pKd: 3.67
DLG4_2, P78352; [1]
  pKd: 3.91
DLG4_3, P78352; [1]
  pKd: below the threshold
DVL3, Q92997; [1]
  pKd: below the threshold
FRMPD2_1, Q68DX3; [1]
  pKd: below the threshold
FRMPD2_3, Q68DX3; [1]
  pKd: below the threshold
GRID2IP_2, A4D2P6; [1]
  pKd: 3.69
GRIP1_3, Q9Y3R0; [1]
  pKd: below the threshold
GRIP1_4, Q9Y3R0; [1]
  pKd: below the threshold
GRIP1_7, Q9Y3R0; [1]
  pKd: below the threshold
GRIP2_4, Q9C0E4; [1]
  pKd: below the threshold
GRIP2_7, Q9C0E4; [1]
  pKd: below the threshold
HTRA2, O43464; [1]
  pKd: below the threshold
IL16_1, Q14005; [1]
  pKd: below the threshold
IL16_3, Q14005; [1]
  pKd: 3.59
Inadl_2, Q8NI35; [1]
  pKd: below the threshold
LIN7A, O14910; [1]
  pKd: below the threshold
MAGI1_2, Q96QZ7; [1]
  pKd: below the threshold
MAST1, Q9Y2H9; [1]
  pKd: 3.63
MPP7, Q5T2T1; [1]
  pKd: 3.65
NHERF4_1, Q86UT5-2; [1]
  pKd: 3.69
NHERF4_2, Q86UT5; [1]
  pKd: below the threshold
NHERF4_4, Q86UT5; [1]
  pKd: below the threshold
PDZD7_3, Q9H5P4; [1]
  pKd: 3.8
SNTG2, Q9NY99; [1]
  pKd: 3.79
SNX27, Q96L92; [1]
  pKd: 4.57
SYNJ2BP, P57105; [1]
  pKd: 4.68

## PPGKHLVTEV [KCNA7, Q96RP8]
CARD11, Q9BXL7; [1]
  pKd: below the threshold
DLG1_2, Q12959; [1]
  pKd: 5.1
DLG4_2, P78352; [1]
  pKd: 5.11
DLG4_3, P78352; [1]
  pKd: 4.16
DVL3, Q92997; [1]
  pKd: below the threshold
FRMPD2_1, Q68DX3; [1]
  pKd: below the threshold
FRMPD2_3, Q68DX3; [1]
  pKd: below the threshold
GRID2IP_2, A4D2P6; [1]
  pKd: 4.37
GRIP1_3, Q9Y3R0; [1]
  pKd: below the threshold
GRIP1_4, Q9Y3R0; [1]
  pKd: below the threshold
GRIP1_7, Q9Y3R0; [1]
  pKd: below the threshold
GRIP2_4, Q9C0E4; [1]
  pKd: below the threshold
GRIP2_7, Q9C0E4; [1]
  pKd: below the threshold
HTRA2, O43464; [1]
  pKd: below the threshold
IL16_1, Q14005; [1]
  pKd: 3.5
IL16_3, Q14005; [1]
  pKd: below the threshold
Inadl_2, Q8NI35; [1]
  pKd: below the threshold
LIN7A, O14910; [1]
  pKd: below the threshold
MAGI1_2, Q96QZ7; [1]
  pKd: 4.24
MAST1, Q9Y2H9; [1]
  pKd: 4.58
MPP7, Q5T2T1; [1]
  pKd: below the threshold
NHERF4_1, Q86UT5-2; [1]
  pKd: 3.94
NHERF4_2, Q86UT5; [1]
  pKd: below the threshold
NHERF4_4, Q86UT5; [1]
  pKd: below the threshold
PDZD7_3, Q9H5P4; [1]
  pKd: 5.2
SNTG2, Q9NY99; [1]
  pKd: below the threshold
SNX27, Q96L92; [1]
  pKd: 4.95
SYNJ2BP, P57105; [1]
  pKd: 4.86

## DDASLPVSDV [PLEKHA1, Q9HB21]
CARD11, Q9BXL7; [1]
  pKd: below the threshold
DLG1_2, Q12959; [1]
  pKd: below the threshold
DLG4_2, P78352; [1]
  pKd: below the threshold
DLG4_3, P78352; [1]
  pKd: below the threshold
DVL3, Q92997; [1]
  pKd: below the threshold
FRMPD2_1, Q68DX3; [1]
  pKd: below the threshold
FRMPD2_3, Q68DX3; [1]
  pKd: below the threshold
GRID2IP_2, A4D2P6; [1]
  pKd: 4.35
GRIP1_3, Q9Y3R0; [1]
  pKd: below the threshold
GRIP1_4, Q9Y3R0; [1]
  pKd: below the threshold
GRIP1_7, Q9Y3R0; [1]
  pKd: below the threshold
GRIP2_4, Q9C0E4; [1]
  pKd: below the threshold
GRIP2_7, Q9C0E4; [1]
  pKd: below the threshold
HTRA2, O43464; [1]
  pKd: below the threshold
IL16_1, Q14005; [1]
  pKd: 3.89
IL16_3, Q14005; [1]
  pKd: below the threshold
Inadl_2, Q8NI35; [1]
  pKd: below the threshold
LIN7A, O14910; [1]
  pKd: below the threshold
MAGI1_2, Q96QZ7; [1]
  pKd: below the threshold
MAST1, Q9Y2H9; [1]
  pKd: 3.96
MPP7, Q5T2T1; [1]
  pKd: below the threshold
NHERF4_1, Q86UT5-2; [1]
  pKd: below the threshold
NHERF4_2, Q86UT5; [1]
  pKd: below the threshold
NHERF4_4, Q86UT5; [1]
  pKd: below the threshold
PDZD7_3, Q9H5P4; [1]
  pKd: 5.22
SNTG2, Q9NY99; [1]
  pKd: 4.48
SNX27, Q96L92; [1]
  pKd: below the threshold
SYNJ2BP, P57105; [1]
  pKd: 3.59

## QQSMSSADSTQA [SARS-Cov2-N, P0DTC9]
CARD11, Q9BXL7; [2]
  pKd: below the threshold
DLG1_2, Q12959; [2]
  pKd: below the threshold
DLG4_2, P78352; [2]
  pKd: below the threshold
DLG4_3, P78352; [2]
  pKd: below the threshold
DVL3, Q92997; [2]
  pKd: below the threshold
FRMPD2_1, Q68DX3; [2]
  pKd: below the threshold
FRMPD2_3, Q68DX3; [2]
  pKd: below the threshold
GRID2IP_2, A4D2P6; [2]
  pKd: below the threshold
GRIP1_3, Q9Y3R0; [2]
  pKd: below the threshold
GRIP1_4, Q9Y3R0; [2]
  pKd: below the threshold
GRIP1_7, Q9Y3R0; [2]
  pKd: below the threshold
GRIP2_4, Q9C0E4; [2]
  pKd: below the threshold
GRIP2_7, Q9C0E4; [2]
  pKd: below the threshold
HTRA2, O43464; [2]
  pKd: below the threshold
IL16_1, Q14005; [2]
  pKd: below the threshold
IL16_3, Q14005; [2]
  pKd: below the threshold
Inadl_2, Q8NI35; [2]
  pKd: below the threshold
LIN7A, O14910; [2]
  pKd: below the threshold
MAGI1_2, Q96QZ7; [2]
  pKd: below the threshold
MAST1, Q9Y2H9; [2]
  pKd: below the threshold
MPP7, Q5T2T1; [2]
  pKd: below the threshold
NHERF4_1, Q86UT5-2; [2]
  pKd: below the threshold
NHERF4_2, Q86UT5; [2]
  pKd: below the threshold
NHERF4_4, Q86UT5; [2]
  pKd: below the threshold
PDZD7_3, Q9H5P4; [2]
  pKd: below the threshold
SNTG2, Q9NY99; [2]
  pKd: below the threshold
SNX27, Q96L92; [2]
  pKd: below the threshold
SYNJ2BP, P57105; [2]
  pKd: below the threshold

## SPDRDRESIV [SCN5A, Q14524]
CARD11, Q9BXL7; [1]
  pKd: below the threshold
DLG1_2, Q12959; [1]
  pKd: 4.86
DLG4_2, P78352; [1]
  pKd: 4.73
DLG4_3, P78352; [1]
  pKd: below the threshold
DVL3, Q92997; [1]
  pKd: below the threshold
FRMPD2_1, Q68DX3; [1]
  pKd: below the threshold
FRMPD2_3, Q68DX3; [1]
  pKd: 3.48
GRID2IP_2, A4D2P6; [1]
  pKd: 3.63
GRIP1_3, Q9Y3R0; [1]
  pKd: below the threshold
GRIP1_4, Q9Y3R0; [1]
  pKd: below the threshold
GRIP1_7, Q9Y3R0; [1]
  pKd: below the threshold
GRIP2_4, Q9C0E4; [1]
  pKd: below the threshold
GRIP2_7, Q9C0E4; [1]
  pKd: below the threshold
HTRA2, O43464; [1]
  pKd: below the threshold
IL16_1, Q14005; [1]
  pKd: 5.08
IL16_3, Q14005; [1]
  pKd: below the threshold
Inadl_2, Q8NI35; [1]
  pKd: below the threshold
LIN7A, O14910; [1]
  pKd: below the threshold
MAGI1_2, Q96QZ7; [1]
  pKd: 3.51
MAST1, Q9Y2H9; [1]
  pKd: 3.83
MPP7, Q5T2T1; [1]
  pKd: below the threshold
NHERF4_1, Q86UT5-2; [1]
  pKd: below the threshold
NHERF4_2, Q86UT5; [1]
  pKd: below the threshold
NHERF4_4, Q86UT5; [1]
  pKd: 3.88
PDZD7_3, Q9H5P4; [1]
  pKd: 4.63
SNTG2, Q9NY99; [1]
  pKd: 4.69
SNX27, Q96L92; [1]
  pKd: 5.26
SYNJ2BP, P57105; [1]
  pKd: 4.47
